Assay results taken from the supplement of paper PMC7877785.
± gives the uncertainty stated by the source.

Assay: self-splicing fitness, log relative to wild type (ln ratio); higher = more splicing; Tetrahymena group I intron in knt gene, E. coli kanamycin selection, DiMSum; sequences stand for … in CUCUCU…GGAGGGAAAAGUUAUCAGGCAUGCACCUGGUAGCUAGUCUUUAAACCAAUAGAUUGCAUCGGUUUAAAAGGCAAGACCGUCAAAUUGCGGGAAAGGGGUCAACAGCCGUUCAGUACCAAGUCUCAGGGGAAACUUUGAGAUGGCCUUGCAAAGGGUAUGGUAAUAAGCUGACGGACAUGGUCCUAACCACGCAGCCAAGUCCUAAGUCAACAGAUCUUCUGUUGAUAUGGAUGCAGUUCACAGACUAAAUGUCGGUCGGGGAAGAUGUAUUCUUCUCAUAAGAUAUAGUCGGACCUCUCCUUAAUGGGAGCUAGCGGAUGAAGUGAUGCAACACUGGAGCCGCUGGGAACUAAUUUGUAUGCGAAAGUAUAUUGAUUAGUUUUGGAGUACUCGUGGUCG
Outline: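 Fitness was computed with DiMSum as the error-weighted combination of replicate fold changes, kanamycin versus none, each normalised to wild type. The library randomised all eight intron nucleotides of the P1ex region, with the intron placed in the knt kanamycin-resistance gene on pET-22b(+) in E. coli BL21(DE3). Six replicate transformations were grown overnight at 37°C or 30°C on LB agar with or without 25 μg/mL kanamycin, plus 100 μg/mL carbenicillin, 50 μM IPTG and 0.2% rhamnose. Pooled colonies were amplicon-sequenced on an Illumina HiSeq 2500.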

| Sequence | self-splicing fitness (ln) (30 °C) | self-splicing fitness (ln) (37 °C) |
| --- | --- | --- |
| UUACAGCAAUAUUACGCGCU | -2.93 ± 0.37 | -2.04 ± 0.31 |
| AACAAGCAAUAUUACGCUCG | -0.882 ± 0.11 | -0.282 ± 0.11 |
| AGCGAGCAAUAUUACGCCCA | -2.07 ± 0.39 | -1.52 ± 0.34 |
| AUAAAGCAAUAUUACGUUCA | 0.0367 ± 0.069 | 0.0639 ± 0.1 |
| CGUGAGCAAUAUUACGUUAC | -3.96 ± 0.43 |  |
| ACAUAGCAAUAUUACGAUAA | -2.16 ± 0.13 | -1.72 ± 0.17 |
| AGGAAGCAAUAUUACGCACA | -0.546 ± 0.13 | 0.104 ± 0.19 |
| CGAAAGCAAUAUUACGGGAG | -3.09 ± 0.12 | -2.56 ± 0.13 |
| UAAAAGCAAUAUUACGUCCA | 0.0284 ± 0.091 | -0.623 ± 0.12 |
| GAGUAGCAAUAUUACGUGCG | -2.61 ± 0.17 | 0.0549 ± 0.13 |
| CCCCAGCAAUAUUACGUCCU | -2.36 ± 0.17 | -2.14 ± 0.22 |
| ACGUAGCAAUAUUACGCUGU | -2.65 ± 0.17 | -2.34 ± 0.21 |
| ACUCAGCAAUAUUACGUUUU | -2.1 ± 0.048 | -0.817 ± 0.061 |
| UCACAGCAAUAUUACGCAGA | -2.54 ± 0.12 | -2.16 ± 0.14 |
| GUGGAGCAAUAUUACGAUUC | -0.681 ± 0.31 | 0.0106 ± 0.22 |
| CGUAAGCAAUAUUACGGCUU | -3.69 ± 0.21 | -2.02 ± 0.25 |
| GAUGAGCAAUAUUACGGUGC |  | -1.53 ± 0.28 |
| CGGGAGCAAUAUUACGAGAC | -3.18 ± 0.45 | -2.45 ± 0.44 |
| AUCCAGCAAUAUUACGUAAC | -1.82 ± 0.13 | -1.91 ± 0.22 |

| Sequence | self-splicing fitness (ln) (30 °C) | self-splicing fitness (ln) (37 °C) |
| --- | --- | --- |
| ACAAAGCAAUAUUACGGCAU | -0.565 ± 0.046 | 0.328 ± 0.058 |
| UUGAAGCAAUAUUACGCACA | -0.575 ± 0.11 | 0.157 ± 0.13 |
| AGUUAGCAAUAUUACGAAAU | -2.58 ± 0.13 | -1.62 ± 0.13 |
| GGAGAGCAAUAUUACGCCAA | -2.04 ± 0.24 |  |
| GUUAAGCAAUAUUACGUGCA | -1.44 ± 0.1 | -0.144 ± 0.11 |
| GAGAAGCAAUAUUACGGUAA | -1.64 ± 0.2 | -1.57 ± 0.18 |
| CUCCAGCAAUAUUACGUGGC | -3.82 ± 0.15 | -3.4 ± 0.24 |
| CGGAAGCAAUAUUACGGUUA | -1.96 ± 0.18 | -2.25 ± 0.2 |
| ACGAAGCAAUAUUACGUAAC | -4.3 ± 0.42 | -2.34 ± 0.49 |
| CUCCAGCAAUAUUACGCAAU | -4.47 ± 0.41 | -2.43 ± 0.2 |
| CCCGAGCAAUAUUACGUUCA | -3 ± 0.16 | -2.99 ± 0.22 |
| ACAGAGCAAUAUUACGUCGC | -2.98 ± 0.31 | -3.02 ± 0.31 |
| GUUGAGCAAUAUUACGUCCU | -1.27 ± 0.17 | -1.47 ± 0.21 |
| UUGUAGCAAUAUUACGCCGA | -0.677 ± 0.23 | -0.628 ± 0.24 |
| UGCCAGCAAUAUUACGGGUA | -2.25 ± 0.15 | -1.24 ± 0.15 |
| CUUGAGCAAUAUUACGGUCG | -1.67 ± 0.15 | -2.3 ± 0.3 |
| GGCUAGCAAUAUUACGUCUU | -0.274 ± 0.075 | 0.396 ± 0.088 |
| GGUUAGCAAUAUUACGGAGC | -2.27 ± 0.24 | -1.43 ± 0.29 |
| AAGGAGCAAUAUUACGAUGA | -3.04 ± 0.24 | -2.02 ± 0.2 |
